Here are results for 125 sequences from the supplement of paper PMC9112550, “Optimization of the antimicrobial peptide Bac7 by deep mutational scanning” (BMC Biology, 2022).
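Note: peptides expressed intracellularly from a pBAD plasmid library in pooled LB shake-flask culture, induced with 0.3% L-arabinose, DNA abundance read by NGS, three biological replicates, DESeq2 with apeglm shrinkage.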

The data set relates to Escherichia coli TOP10. Put plainly: shrunken log2 fold change of peptide-encoding DNA abundance (4.5 h post-induction vs induction); higher = less antimicrobial activity (less host growth inhibition). The settings on record: time post-induction: 4.5 h; library: site-saturation at positions 5, 18, 19, 20.
RRIRWRPPRLPRPRPRPVPVPRP: the “shrunken log2 fold change” value is 0.271.
For RRIRHRPPRLPRPRPRPFCRPRP the value was -0.108; for RRIRKRPPRLPRPRPRPYVDPRP, -0.24.
The same measure for RRIRHRPPRLPRPRPRPEYSPRP: -0.0276; for RRIRWRPPRLPRPRPRPSFFPRP: 0.0041; for RRIRVRPPRLPRPRPRPCKMPRP: -0.159.
RRIRMRPPRLPRPRPRPESLPRP: the “shrunken log2 fold change” value is 1.69.
The same measure for RRIRRRPPRLPRPRPRPFNEPRP: -0.846; for RRIRIRPPRLPRPRPRPCLPPRP: -0.425.
For RRIRFRPPRLPRPRPRPDGQPRP the value was -0.0411.
Take RRIRTRPPRLPRPRPRPNPRPRP: the “shrunken log2 fold change” value came out at 0.23.
The same measure for RRIRPRPPRLPRPRPRPPLHPRP: 0.21; for RRIRKRPPRLPRPRPRPIHKPRP: -0.211; for RRIRHRPPRLPRPRPRPWAKPRP: -0.235.
On to RRIRCRPPRLPRPRPRPIRWPRP, for which the “shrunken log2 fold change” value is 0.034.
For RRIRWRPPRLPRPRPRPYGAPRP the value was -0.0532; for RRIRWRPPRLPRPRPRPSNTPRP, -0.355.
As for RRIRSRPPRLPRPRPRPNNSPRP, the “shrunken log2 fold change” value is -0.724.
For the sequence RRIRVRPPRLPRPRPRPLEVPRP, the “shrunken log2 fold change” value came out at 0.0693.
The same measure for RRIRWRPPRLPRPRPRPSYFPRP: 1.15; for RRIRSRPPRLPRPRPRPGMVPRP: 0.23.
Take RRIRERPPRLPRPRPRPPSYPRP: the “shrunken log2 fold change” value was -0.0583.
The same measure for RRIRIRPPRLPRPRPRPMRQPRP: 0.3.
Consider RRIRDRPPRLPRPRPRPLWYPRP, for which the “shrunken log2 fold change” value is -0.421.
The same measure for RRIRTRPPRLPRPRPRPIMMPRP: -0.267.
On to RRIRTRPPRLPRPRPRPSYYPRP, for which the “shrunken log2 fold change” value was -0.786.
As for RRIRTRPPRLPRPRPRPCISPRP, the “shrunken log2 fold change” value is -0.503.
For RRIRLRPPRLPRPRPRPRTTPRP the value was 0.182; for RRIRQRPPRLPRPRPRPIYYPRP, -1.26.
The same measure for RRIRVRPPRLPRPRPRPWSMPRP: -0.014; for RRIRIRPPRLPRPRPRPEVQPRP: -0.022.
The same measure for RRIRARPPRLPRPRPRPYRIPRP: 0.11; for RRIRCRPPRLPRPRPRPTHRPRP: 0.426; for RRIRNRPPRLPRPRPRPDLLPRP: -0.0183.
For the sequence RRIRFRPPRLPRPRPRPKAQPRP, the “shrunken log2 fold change” value was -0.0881.
Regarding RRIRRRPPRLPRPRPRPSTYPRP, the “shrunken log2 fold change” value is -0.418.
For RRIRTRPPRLPRPRPRPKLYPRP the value was -0.363.
Consider RRIRCRPPRLPRPRPRPMKYPRP, for which the “shrunken log2 fold change” value was -0.82.
For RRIRLRPPRLPRPRPRPLDVPRP, the “shrunken log2 fold change” value is -0.205.
With RRIRKRPPRLPRPRPRPQDSPRP, the “shrunken log2 fold change” value was -0.017.
Turning to RRIRIRPPRLPRPRPRPIPCPRP, the “shrunken log2 fold change” value was -0.00867.
As for RRIRQRPPRLPRPRPRPSCAPRP, the “shrunken log2 fold change” value was -0.0664.
For RRIRFRPPRLPRPRPRPPPHPRP, the “shrunken log2 fold change” value amounted to 1.37.
As for RRIRDRPPRLPRPRPRPHLSPRP, the “shrunken log2 fold change” value amounted to 0.0479.
On to RRIRNRPPRLPRPRPRPQKTPRP, for which the “shrunken log2 fold change” value is -0.0033.
For RRIRRRPPRLPRPRPRPKVMPRP, the “shrunken log2 fold change” value was found to be 0.16.
RRIRYRPPRLPRPRPRPQTCPRP: the “shrunken log2 fold change” value is -0.0146.
Turning to RRIRERPPRLPRPRPRPYKYPRP, the “shrunken log2 fold change” value amounted to 0.686.
Regarding RRIRPRPPRLPRPRPRPYEHPRP, the “shrunken log2 fold change” value was -0.408.
The same measure for RRIRERPPRLPRPRPRPNLNPRP: -0.58; for RRIRHRPPRLPRPRPRPCRAPRP: 0.0188; for RRIRMRPPRLPRPRPRPYMGPRP: -0.0411.
On to RRIRDRPPRLPRPRPRPVNIPRP, for which the “shrunken log2 fold change” value was found to be 0.0452.
Consider RRIRQRPPRLPRPRPRPHRVPRP, for which the “shrunken log2 fold change” value was -0.00151.
Turning to RRIRLRPPRLPRPRPRPLRPPRP, the “shrunken log2 fold change” value worked out at 0.525.
On to RRIRMRPPRLPRPRPRPFSSPRP, for which the “shrunken log2 fold change” value was found to be 0.0321.
Regarding RRIRNRPPRLPRPRPRPPGPPRP, the “shrunken log2 fold change” value stood at 0.419.
For RRIRDRPPRLPRPRPRPHQKPRP, the “shrunken log2 fold change” value worked out at 0.365.
The same measure for RRIRIRPPRLPRPRPRPLALPRP: -0.138; for RRIRFRPPRLPRPRPRPNAKPRP: -0.00228.
As for RRIRNRPPRLPRPRPRPCVWPRP, the “shrunken log2 fold change” value was -0.024.
For RRIRPRPPRLPRPRPRPCMEPRP the value was -0.106.
As to RRIRWRPPRLPRPRPRPPWYPRP, the “shrunken log2 fold change” value was -0.0946.
The same measure for RRIRTRPPRLPRPRPRPTAPPRP: 0.159; for RRIRNRPPRLPRPRPRPRDYPRP: -0.0159.
On to RRIRRRPPRLPRPRPRPSCQPRP, for which the “shrunken log2 fold change” value is -0.0699.
In the case of RRIRGRPPRLPRPRPRPDNLPRP, the “shrunken log2 fold change” value was -0.226.
The same measure for RRIRGRPPRLPRPRPRPTVTPRP: 1.34; for RRIRWRPPRLPRPRPRPLPLPRP: 0.477.
The same measure for RRIRSRPPRLPRPRPRPVPTPRP: 0.105; for RRIRYRPPRLPRPRPRPFYMPRP: -0.258.
For RRIRGRPPRLPRPRPRPAPMPRP the value was 1.1.
As to RRIRTRPPRLPRPRPRPACFPRP, the “shrunken log2 fold change” value was found to be 0.252.
For RRIRYRPPRLPRPRPRPVEKPRP, the “shrunken log2 fold change” value is -0.129.
Regarding RRIRFRPPRLPRPRPRPWNNPRP, the “shrunken log2 fold change” value was -0.0242.
Take RRIRERPPRLPRPRPRPWDMPRP: the “shrunken log2 fold change” value was -0.212.
Consider RRIRLRPPRLPRPRPRPCKDPRP, for which the “shrunken log2 fold change” value was -0.194.
Regarding RRIRFRPPRLPRPRPRPCIVPRP, the “shrunken log2 fold change” value is -0.637.
RRIRDRPPRLPRPRPRPGLYPRP: the “shrunken log2 fold change” value is 0.199.
The same measure for RRIRHRPPRLPRPRPRPRAPPRP: 0.741; for RRIRYRPPRLPRPRPRPQSVPRP: -0.11; for RRIRIRPPRLPRPRPRPTLKPRP: -0.132.
The same measure for RRIRRRPPRLPRPRPRPWLAPRP: 0.35.
For the sequence RRIRFRPPRLPRPRPRPRLLPRP, the “shrunken log2 fold change” value was found to be 0.342.
The same measure for RRIRRRPPRLPRPRPRPDVFPRP: 0.06; for RRIRTRPPRLPRPRPRPHLKPRP: -0.207.
The same measure for RRIRFRPPRLPRPRPRPTNNPRP: -0.644; for RRIRDRPPRLPRPRPRPQCVPRP: 0.0602; for RRIRPRPPRLPRPRPRPHRTPRP: -0.0599.
The same measure for RRIRMRPPRLPRPRPRPEPSPRP: 2.72; for RRIRARPPRLPRPRPRPIHCPRP: -0.189.
Regarding RRIRQRPPRLPRPRPRPRGSPRP, the “shrunken log2 fold change” value amounted to 0.0908.
The same measure for RRIRFRPPRLPRPRPRPICTPRP: -0.218; for RRIRSRPPRLPRPRPRPSDRPRP: -0.254; for RRIRIRPPRLPRPRPRPQHHPRP: -0.875.
For RRIRVRPPRLPRPRPRPMHHPRP the value was -0.257; for RRIRFRPPRLPRPRPRPKWGPRP, 0.129; for RRIRCRPPRLPRPRPRPSPCPRP, -0.0417.
The same measure for RRIRNRPPRLPRPRPRPGTFPRP: -0.281.
With RRIRARPPRLPRPRPRPWAFPRP, the “shrunken log2 fold change” value stood at 0.222.
Consider RRIRERPPRLPRPRPRPQSRPRP, for which the “shrunken log2 fold change” value is 0.00145.
The same measure for RRIRWRPPRLPRPRPRPYFPPRP: -0.282.
Consider RRIRRRPPRLPRPRPRPRCVPRP, for which the “shrunken log2 fold change” value was determined as 0.402.
Regarding RRIRFRPPRLPRPRPRPIKWPRP, the “shrunken log2 fold change” value is -0.101.
For RRIRHRPPRLPRPRPRPQDFPRP the value was 0.0261; for RRIRERPPRLPRPRPRPMKWPRP, -0.0404; for RRIRHRPPRLPRPRPRPRAVPRP, 0.518.
Regarding RRIRCRPPRLPRPRPRPVTLPRP, the “shrunken log2 fold change” value was -0.34.
Regarding RRIRQRPPRLPRPRPRPQRMPRP, the “shrunken log2 fold change” value was -0.0094.
For the sequence RRIRERPPRLPRPRPRPYEPPRP, the “shrunken log2 fold change” value came out at 0.029.
The same measure for RRIRVRPPRLPRPRPRPQNCPRP: -0.205; for RRIRHRPPRLPRPRPRPLRNPRP: -0.0741; for RRIRQRPPRLPRPRPRPKCPPRP: -0.0714.
As for RRIRYRPPRLPRPRPRPPNIPRP, the “shrunken log2 fold change” value is -0.659.
The same measure for RRIRNRPPRLPRPRPRPSKQPRP: 0.00527; for RRIRKRPPRLPRPRPRPMLPPRP: 0.349.
For RRIRMRPPRLPRPRPRPGQKPRP the value was 0.142; for RRIRWRPPRLPRPRPRPGDKPRP, -0.00136; for RRIRDRPPRLPRPRPRPHMLPRP, -0.144.
The same measure for RRIRARPPRLPRPRPRPMERPRP: 0.0157.
Regarding RRIRPRPPRLPRPRPRPVCPPRP, the “shrunken log2 fold change” value came out at 0.0159.
For the sequence RRIRVRPPRLPRPRPRPKKFPRP, the “shrunken log2 fold change” value is -0.0429.
Regarding RRIRLRPPRLPRPRPRPIVLPRP, the “shrunken log2 fold change” value is -0.345.
For RRIRHRPPRLPRPRPRPPYTPRP the value was -0.266; for RRIRLRPPRLPRPRPRPWVLPRP, -0.0289.
